Reference: article PMC4226670

Target: GST-p53 (UniProt P04637)
Test: fluorescence polarization
Conditions: FP: 4 nM FAM duplex, 100 mM NaCl, 10 mM Tris-HCl pH 7.5, 10% glycerol, 5 mM DTT, 0.2 mg/mL BSA, room temperature; pull-down: 2 ug duplex with lysate, 90 min …

Chain of GST-p53 (P04637 whole entry): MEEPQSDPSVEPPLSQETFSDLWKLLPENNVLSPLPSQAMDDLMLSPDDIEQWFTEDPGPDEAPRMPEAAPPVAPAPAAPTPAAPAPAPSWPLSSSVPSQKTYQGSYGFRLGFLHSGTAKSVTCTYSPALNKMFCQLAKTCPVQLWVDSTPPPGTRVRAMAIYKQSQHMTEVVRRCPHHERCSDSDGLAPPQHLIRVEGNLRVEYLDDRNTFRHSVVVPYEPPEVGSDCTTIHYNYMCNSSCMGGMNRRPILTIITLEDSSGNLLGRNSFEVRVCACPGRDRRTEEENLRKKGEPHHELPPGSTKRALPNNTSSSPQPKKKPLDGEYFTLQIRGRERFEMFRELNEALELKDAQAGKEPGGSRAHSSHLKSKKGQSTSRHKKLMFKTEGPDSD

“CGCGCCTGCAAGTCCTGACTTGTCCGCGGC (double strand) [PUMA promoter duplex, FAM]” was tested, and the Kd was 29.6 nM.
